Experimental findings from patent US20230110188A1 (ARGENX IIP, published 2023) are described below.

In assay [1] the target is T1, Human MuSK (R&D Systems, cat. 10189-MK, histidine tag) (human, UniProt O15146 24-495).
T1 construct: Bought protein; also called human monomeric MuSK-6xhis; not shown: histidine tag (6xhis)
T1 sequence: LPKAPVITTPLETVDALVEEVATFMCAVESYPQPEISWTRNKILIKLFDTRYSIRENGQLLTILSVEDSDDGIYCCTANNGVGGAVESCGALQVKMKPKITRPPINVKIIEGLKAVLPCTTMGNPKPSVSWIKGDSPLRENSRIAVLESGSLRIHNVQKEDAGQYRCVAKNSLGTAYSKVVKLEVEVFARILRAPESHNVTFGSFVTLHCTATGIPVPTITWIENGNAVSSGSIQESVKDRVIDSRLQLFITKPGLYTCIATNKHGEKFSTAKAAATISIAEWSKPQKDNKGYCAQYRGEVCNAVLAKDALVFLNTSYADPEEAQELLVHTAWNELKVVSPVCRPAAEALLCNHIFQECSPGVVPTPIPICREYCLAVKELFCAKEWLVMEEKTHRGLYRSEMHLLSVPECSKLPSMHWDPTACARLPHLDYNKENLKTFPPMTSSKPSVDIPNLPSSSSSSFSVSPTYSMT
Kind of assay: SPR (Biacore), MuSK-coated chip, antibody alone (run of first antibody 3F6c). Here is the method: A chip was coated with ˜5000 RU of human MuSK (Lot nr DHUCO 11908A, batch nr 1089_MK). In a first experiment the saturating concentration of the pre-leads was determined. This is the concentration where the amplitude of a specific pre-lead doesn't increase anymore when additional pre-lead is injected on the immobilized MuSK.
For orientation: SPR reads the build-up and loss of mass on a sensor chip optically.

Assay [2] concerns the target T1, Human MuSK (R&D Systems, cat. 10189-MK, …). The assay is described as follows: SPR (Biacore), antibody captured on anti-hFc chip; 0.625 nM; dissociation pH 7.4. From the text: (§1) In order to study pH dependent binding of our antibodies to MuSK, the Biacore was used with the same setup as described in the paragraph entitled “Binding affinity for mouse, human and rhesus monkey recombinant MuSK in Biacore”. 6. […] For the other antibodies there is no real difference observed between pH 7.4 and 5.5.

The target in assay [3] is T2, human monomeric MuSK FLAG streptavidin (in house produced, batch 27-6-2019) (human, UniProt O15146 24-495).
T2 construct: also called full length MuSK; not shown: FLAG and streptavidin tags
T2 sequence: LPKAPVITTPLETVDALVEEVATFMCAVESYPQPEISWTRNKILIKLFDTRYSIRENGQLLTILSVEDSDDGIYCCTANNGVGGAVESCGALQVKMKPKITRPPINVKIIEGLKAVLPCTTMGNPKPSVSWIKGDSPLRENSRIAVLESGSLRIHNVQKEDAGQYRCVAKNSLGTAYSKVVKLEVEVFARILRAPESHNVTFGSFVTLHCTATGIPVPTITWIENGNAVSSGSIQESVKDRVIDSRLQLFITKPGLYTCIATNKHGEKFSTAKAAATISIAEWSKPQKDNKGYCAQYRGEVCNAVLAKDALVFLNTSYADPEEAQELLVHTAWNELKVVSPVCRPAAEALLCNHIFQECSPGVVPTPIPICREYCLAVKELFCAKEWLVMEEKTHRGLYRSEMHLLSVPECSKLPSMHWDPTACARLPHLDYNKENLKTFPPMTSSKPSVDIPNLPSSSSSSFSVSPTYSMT
The assay is described as follows: epitope binning ELISA (coated anti-MuSK Fab, MuSK, IgG, anti-Fc HRP); competitor: 3F6c. The method, then: (§2) For epitope binning—An ELISA plate was coated at 1 μg/ml of the anti-MuSK Fabs and incubated overnight at 4° C. Next, the plate was wash with PBS followed by blocking with 1% casein in PBS for one hour. After washing the plate, 1 μg/ml of human monomeric MuSK (in house produced, batch 27-6-2019) was incubated for one hour at RT. The plate was washed and anti-MuSK antibodies at 0.3-10 μg/ml were added to the plate and incubated for one hour at RT. After washing the plate, detection antibody (goat anti-human Fc HRP (Jackson Immunoresearch cat. 109-035-098)) was added at 5000 fold dilution in PBS 0.1% casein. The plate was incubated for one hour at RT and washed with PBS-T. TMB was added and the reaction was stopped by adding H2504. […]
(§3) For the epitope binning ELISA, a plate was coated with anti-MuSK Fab and human monomeric MuSK was added after blocking the plate. Next the different antibodies were added and allowed to bind.

Assay [4] addresses T1, Human MuSK (R&D Systems, cat. 10189-MK, …). Kind of assay: SPR (Biacore), antibody captured on anti-hFc chip; 0.625 nM; dissociation pH 5.5.
Text: as §1

In assay [5] the target is T2, human monomeric MuSK FLAG streptavidin …. The assay is described as follows: epitope binning ELISA (coated anti-MuSK Fab, MuSK, IgG, anti-Fc HRP); competitor: 3B5wt. Here is the method:
as §2, §3
(In general: In an ELISA, binding on a coated surface is turned into a signal by an enzyme label.)

Assay [6] addresses T1, Human MuSK (R&D Systems, cat. 10189-MK, …). Kind of assay: SPR (Biacore), koff at pH 5.5 over koff at pH 7.4.
Text: as §1

The target is the same in assay [7]. The assay is described as follows: SPR (Biacore), antibody captured on anti-hFc chip; 2.5 nM; dissociation pH 7.4.
Text: as §1

The target of assay [8] is T2, human monomeric MuSK FLAG streptavidin …. Kind of assay: epitope binning ELISA (coated anti-MuSK Fab, MuSK, IgG, anti-Fc HRP); competitor: 3D10a. The method, then: as §2, §3
In assay [9] the target is T1, Human MuSK (R&D Systems, cat. 10189-MK, …). The assay is described as follows: SPR (Biacore), pH 5.5 (summary table, repeats the average of Table 17).
Text: as §1

The target is the same in assay [10]. The assay is described as follows: SPR (Biacore), antibody captured on anti-hFc chip; 10 nM; dissociation pH 7.4.
Text: as §1

The target is the same in assay [11]. The assay is described as follows: SPR (Biacore), pH 7.4 (summary table, repeats the average of Table 16).
Text: as §1

B1: 3D10a (antibody, human IgG1, kappa, L234A L235A, V domains shown)
VH: EVQLVESGGGLVKPGGSLRLSCAASGFTFSASTMAWVRQAPGKGLEWVSSVSGDSHHIYYADSLKGRFTISRDNAKNSLYLQMNSLRAEDTAVYYCARERLLRLGVGFDSWGQGTLVTVSS
VL: DIQMTQSPSSLSASVGDRVTITCRASQRISGFVNWYQQKPGKAPKLLIYAASTLQSGVPSRFSGSGSGTDFTLTISSLQPEDFATYYCQQSYSPLYTFGQGTKLEIKR
Usually koff stands for the first-order rate constant of dissociation. Read a high koff as fast dissociation. As to B1, the “amplitude of prelead without presaturating MuSK (RU)” value in assay [1] turned out to be 2370 RU. Moreover, the koff in assay [2] was 0.00013 s⁻¹; in assay [4], 0.00012 s⁻¹; in assay [7] it was 0.00018 s⁻¹; in assay [9], 9e-05 s⁻¹; in assay [10] it was 0.00014 s⁻¹. Moreover, the “OD 450 nm” value came to 0.162 OD in assay [3], 2.12 OD in [5] and 0.049 OD in assay [8]. Further, the “Fold difference (5.5/7.4) of koff” value in [6] was 0.6 fold.

B2: 4D3 (antibody, human IgG1, kappa, L234A L235A, V domains shown)
VH: EVQLVESGGGLVKPGGSLRLSCAASGFTFSSYTMTWVRQAPGKGLEWVSSISSGGHYIYYTDSLKGRFTISRDNAKNSLYLQMNSLRAEDTAVYYCARERLLRLGVGFDFWGQGTLVTVSS
VL: DIQMTQSPSSLSASVGDRVTITCRASQSISGYLNWYQQKPGKAPKLLIYAASTLQSGVPSRFSGSGSGTDFTLTISSLQPEDFATYYCQQSYSALYTFGQGTKLEIKR
On to B2, for which the “amplitude of prelead without presaturating MuSK (RU)” value in [1] turned out to be 2390 RU. The koff in assay [2] is 0.00016 s⁻¹; in assay [4], 0.00013 s⁻¹; in assay [11], 0.00014 s⁻¹; in assay [7], 0.00015 s⁻¹; in assay [9], 0.00016 s⁻¹; in assay [10], 0.00013 s⁻¹. For the same molecule, the “OD 450 nm” value in [3] came to 0.1 OD; in assay [5] it was 0.882 OD; in assay [8], 0.008 OD. Moreover, the “Fold difference (5.5/7.4) of koff” value in [6] worked out at 1.1 fold.

B3: 3F6c (antibody, human IgG1, kappa, L234A L235A, V domains shown)
VH: EVQLVESGGGLVKPGGSLRLSCAASGFTFSSYTMDWVRQAPGKGLEWVSSIGSNGDYIYYADSVRGRFTISRDNAKNSLYLQMNSLRAEDTAVYYCARGQLAVAGTHFDYWGQGTLVTVSS
VL: DIQMTQSPSSLSASVGDRVTITCRASQKVNKYVNWYQQKPGKAPKLLIYAASTLQSGVPSRFSGSGSGTDFTLTISSLQPEDFATYYCQQSYSPLSTFGQGTKLEIKR
Take B3: the “amplitude of prelead without presaturating MuSK (RU)” value in [1] was found to be 3640 RU. Further, the koff amounted to 4e-05 s⁻¹ in assay [2]; 0.00014 s⁻¹ in assay [4]; 8e-05 s⁻¹ in assay [11]; 6e-05 s⁻¹ in [7]; 0.0002 s⁻¹ in [9]; 6e-05 s⁻¹ in assay [10]. Further, the figures for the “OD 450 nm” value in [3], in [5] and in assay [8] were 0.156 OD, 2.2 OD and 0.057 OD, respectively. Moreover, the “Fold difference (5.5/7.4) of koff” value in [6] was found to be 2.5 fold.

B4: 3D9b (antibody, human IgG1, kappa, L234A L235A, V domains shown)
VH: EVQLVESGGGLVKPGGSLRLSCAASGFTFSTYTMHWVRQAPGKGLEWVSSISSRSAYKYYADSVKGRFTISRDNAKNSLYLQMNSLRAEDTAVYYCARDFFQLGPPRFDSWGQGTLVTVSS
VL: DIQMTQSPSSLSASVGDRVTITCRASQRISSFLNWYQQKPGKAPKLLIYGASNLQSGVPSRFSGSGSGTDFTLTISSLQPEDFATYYCQQSYSPSYTFGQGTKLEIKR
Take B4: the “amplitude of prelead without presaturating MuSK (RU)” value in [1] is 1660 RU. In addition, the off-rate constant (koff) was 0.00014 s⁻¹ in assay [2]; 4e-05 s⁻¹ in [4]; 0.00012 s⁻¹ in [11]; 9e-05 s⁻¹ in assay [7]; 4e-05 s⁻¹ in assay [9]; 8e-05 s⁻¹ in [10]. The “OD 450 nm” value came out at 0.186 OD in assay [3], 2.66 OD in assay [5] and 0.06 OD in assay [8]. Besides, in assay [6], the “Fold difference (5.5/7.4) of koff” value amounted to 0.3 fold.
